Measured values taken from article PMC9317851, “Genomic Characterization of Bacillus safensis Isolated from Mine Tailings in Peru and Evaluation of Its Cyanide-Degrading Enzyme CynD” (Applied and Environmental Microbiology, 2022).

Assays:
[1] = biological target: the molecule itself; assay: SEC-MALS; pH 8; 100 mM NaCl, 20 mM Tris-HCl; 100-μL injection of 3.47 mg/mL (89.36 μM) CynD; Superdex 200 increase 10/300 GL; size of the oligomers
[2] = biological target: the molecule itself; assay: SEC-MALS; pH 9; 100 mM NaCl, 20 mM Tris-HCl; 100-μL injection of 3.47 mg/mL (89.36 μM) CynD; Superdex 200 increase 10/300 GL; size of the oligomers
[3] = biological target: the molecule itself; assay: SEC-MALS; pH 10; 100 mM NaCl, 20 mM CAPS; 100-μL injection of 3.47 mg/mL (89.36 μM) CynD; Superdex 200 increase 10/300 GL; size of the oligomers

B1: Cyanide dihydratase CynD from Bacillus safensis PER-URP-08 (CynD_(PER-URP-08)), recombinant with C-terminal 6xHis tag (enzyme, UniProt P0DXY3 1-330, looked up)
chain: MTSIYPKFRAAAVQAAPVYLNLEATVEKSCELIDEAASNGAKLVAFPEAFLPGYPWFAFIGHPEYTRKFYHELYKNAVEIPSLAIQKISEAAKRNETYVCISCSEKDGGSLYLAQLWFNPNGDLIGKHRKMRASVAERLIWGDGSGSMMPVFQTDIGNLGGLMCWEHQVPLDLMAMNAQNEQVHVASWPGYFDDEISSRYYAIATQTFVLMTSSIYTEEMKEMICLTQEQRDYFETFKSGHTCIYGPDGEPISDMVPAETEGIAYAEIDVERVIDYKYYIDPAGHYSNQSLSMNFNQQPTPVVKQLYHQKNEVFTYEDIQYQHGILEEKV
notes: Cyanide dihydratase CynD of Bacillus safensis PER-URP-08, locus EGI07_08135; monomer 38.5 kDa; The forward primer carries the NdeI site CATATG followed by a further atg, so an added N-terminal Met may be present; also called recombinant CynD; EGI07_08135; source: E. coli BL21(DE3)/pLysS, purified (Ni-NTA, size exclusion chromatography); not shown: 6xHis, C-terminal, kept
**Q.** What does the source list for B1?
**A.** stoichiometry N [1]: 24 to 48 mer; stoichiometry N [2]: 4 to 6 mer; stoichiometry N [3]: 3 to 5 mer
